Laboratory results taken from patent US20240117030A1 (Pfizer, published 2024).

Columns and labels:
recombinant human IL-33 = target: T1, recombinant human IL-33 (human, UniProt O95760 112-270, limits assumed); assay: cell-based or functional assay
T1 sequence (looked up): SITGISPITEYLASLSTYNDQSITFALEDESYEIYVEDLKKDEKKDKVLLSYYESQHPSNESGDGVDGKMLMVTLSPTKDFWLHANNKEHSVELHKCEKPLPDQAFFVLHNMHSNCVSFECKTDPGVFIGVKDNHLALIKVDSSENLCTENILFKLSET

recombinant human IL-13 = recombinant human IL-13 (human, UniProt P35225 35-146); assay: cell-based or functional assay
recombinant human IL-13, sequence (P35225 35-146 limits assumed): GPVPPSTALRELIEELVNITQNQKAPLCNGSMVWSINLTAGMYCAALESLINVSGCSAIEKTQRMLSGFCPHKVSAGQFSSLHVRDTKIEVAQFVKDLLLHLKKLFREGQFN

B1: IL33-158-152 (antibody, human IgG1, kappa, V domains shown)
VH: EVQLVESGGGLVQPGGSLRLSCAASGFTFSSYWMYWVRQAPGKGLEWVAAITPNAGEDYYPESVKGRFTISRDNAKNSLYLQMNSLRAEDTAVYYCARGHYYYTSYSLGYWGQGTLVTVSS
VL: DIQMTQSPSSLSASVGDRVTITCKASQNINKHLDWYQQKPGKAPKLLIYFTNNLQTGVPSRFSGSGSGTDFTLTISSLQPEDFATYYCFQYNQGWTFGGGTKVEIKR
- IC50 (mean), HEK-Blue IL-33 SEAP (recombinant human IL-33): 0.0428 nM

B2: IL33-0726 (antibody, human IgG1, kappa, V domains shown)
VH: EVQLVESGGGLVQPGGSLRLSCAASGFTFSSYWMYWVRQAPGKGLEWVAAITPNAGEDYYPESVKGRFTISRDNAKNSLYLQMNSLRAEDTAVYYCARGQYYYTKYSLGYWGQGTLVTVSS
VL: DIQMTQSPSSLSASVGDRVTITCRASQPIHNHLDWYQQKPGKAPKLLIYFGKNLQEGVPSRFSGSGSGTDFTLTISSLQPEDFATYYCFQYKKGWSFGGGTKVEIKR
- IC50 (mean), HEK-Blue IL-33 SEAP (recombinant human IL-33): 0.00827 nM

B3: IL13-1307 (antibody, human IgG1, kappa, V domains shown)
VH: EVQLVESGGGLVQPGGSLRLSCAASGFTFSSYAMSWVRQAPGKGLEWVASISSGDTTYYPDSVKGRFTISRDNAKNSLYLQMNSLRAEDTAVYYCARLDGYYFGFPYWGQGTLVTVSS
VL: DIQMTQSPSSLSASVGDRVTITCKASESVDHSGSSLMHWYQQKPGKAPKLLIYRASNLESGVPSRFSGSGSGTDFTLTISSLQPEDFATYYCQQSNEDPWTFGGGTKVEIKR
- IC50 (median), Monocyte CD23 expression (recombinant human IL-13): 0.306 nM
- IC50 (median), STAT6 phosphorylation in HT-29 cells (recombinant human IL-13): 0.14 nM
